# Measurements: the nanobody polyreactivity screen of Harvey et al. (2022)
# Assay: yeast display, Sf9 membrane polyspecificity reagent, FACS + sequencing; frameworks hold sequencing errors
# Outline: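 A synthetic nanobody library was expressed on Saccharomyces cerevisiae BJ5465 by galactose induction for 36–48 hours. The library was stained for 1 hour at 4 °C with 10% biotinylated, detergent-solubilized Sf9 membrane reagent and enriched with streptavidin microbeads before FACS. Low and high (top ~1%) gates were set on anti-HA fluorescence for expression and streptavidin fluorescence for reagent binding, and each polyreactivity label reflects the gate of origin.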
sequence,measurement,value
QVQLVESGGGLVQAGGRLRLSCAPSGTTFNPYTMGLYRQAPGKEGELVATITRIGGSTYYADSVKGRFTISRDNAKNTVYLQMNSLKPEDTAVYYCAADHYRSVRWRSNYTYRVNYWGQGTQVTVSS,polyreactivity (PSR sort gate),high polyreactivity
QVQLVESGGGLVQAGGSLRLSCAASGFIFYRNAMGWYRQAPGKERELVAAISGSGGRTYYADSVNGRFTISRDNAKNTVYLQMNSLNPEDTAVYYCNAGLLYRGEYDYWGQGTQVTVSS,polyreactivity (PSR sort gate),high polyreactivity
QVQLVESGGGLVQAGGSLRLSCAASGSIFIGYAMGWYRQAPGKERELVAAISQSGGRTYYADSVKGRFTISRDNAKNTVYLQMNSLKPEDTAVYYCNKVTKSYFIYDYWGQGTQVTVSS,polyreactivity (PSR sort gate),high polyreactivity
QGQLVESGGGLVQAGGSLRLSCAASGIIFGGYTMGWYRQAPGKERELVAAITKRTDRTYYADSVKGRFTISRDNAKNTVYLQMHSMKPEDTAVYYCATRGGITRPWYGYDYWGQGTQVTVSS,polyreactivity (PSR sort gate),high polyreactivity
QVQLVESGGGLVQAGGSLRLSCAASGIIFYYNAMGWYRQAPGKERELVAAIDDRGDSTYYADSVKGRFTISRDNAKNTVYLQMNSLKPEDTAVYYCAARDRYLYFDAMDYWGQGTLVTVSS,polyreactivity (PSR sort gate),low polyreactivity
QVQLVESGGGLVQAGGSLRLSCAASGNIFYANDMGWYIQAPGKERELVAAITGSGGSTYYADSVKGRFTISRDNAKNTVYLQMDSLKPEDTAVYYCATPYDIQWASESHDSWGQGTQVTVSS,polyreactivity (PSR sort gate),low polyreactivity
QVQLVESGGGLVQAGGSLRLSCAASGSTFYPYAMGRYRQAPGKERELVAAISSGGSTSYADSVKGRFTISRDNAKNTVYLQLNSLKPEDTAVYYCNASSPGAVPVYDYDYWGQGTQVTVSS,polyreactivity (PSR sort gate),low polyreactivity
QVHLVESGGGLVQAGGSLRLSCAASGNTFGRYAMGWYRQAPGKEREFVAAIRWRGATTYYADSVKGRFTISRDNAKNTVDLQMNSLKPEDTAVYYCAAYYWGQGTGFDYWGQGTQVTVSS,polyreactivity (PSR sort gate),high polyreactivity
QVQLVESGGGLVQAGGSRRLSCAASGSTFYGYAMGWYRQAPGKERELVAAIRRIGGTTYADSVKGRFTLSRDNAKNTVYLQMNSLKPEDTAVYYCAAYGFSYRYRYYYWGQGTQVTVSS,polyreactivity (PSR sort gate),high polyreactivity
QVQLVESGGGLVQAGGSLRLSCAASGRIYGTNAMGWYRQAPGKEMELVAAINGSDSSTYYADSVKGRFTISRDNAKNTVYLQINSLKPEDTAVYYCNADWSGAPERSTDGYDYWGQGTQVTVSS,polyreactivity (PSR sort gate),low polyreactivity
QVQLVESGGGLVQAGGSLRLSCAASGFIYRYNVMGWYRHAPGKEMEMVAAISTSGGRTYYADSVKGRFTISRDNAKNTVYLQMNSLKPEDSAVYYCNAVKSEVQKVGDGYYWGLGTQVTVSS,polyreactivity (PSR sort gate),high polyreactivity
QVQLVESGGGLVQAGGSLRLSCAASGRTFRYYTMGWYRQAPGTERELVAAITGGSRTNYADSVKGRFTISRDNAKNTVYLQMNSLKPEDTAVYYCAARRSYLLRYDYWGQGTQVTVSS,polyreactivity (PSR sort gate),high polyreactivity
QVQLVETGGRKVQPGGSLRLSCAASRRTFDHNAMGWYRQAPGKERELVAAITWSGGITDYADSVKRPFTISRDNAKNTVYLEMFSLKPEDTAVWGQGTQVSVSS,polyreactivity (PSR sort gate),low polyreactivity
QVQLVESGGGLVQAGGSLRLSCAASGFTFAFYAMGWYRQAPGKERELVDAIRRTGSTNYADSVKGRFTISRDNAKNTVYLQMNSLKPEDNAVYYCAKTLWYDRGVGYWGQGTQVTVSS,polyreactivity (PSR sort gate),high polyreactivity
QVQLVESGGGLVQAGGSLRLSCAASGRTFPAYAMGWYRQAPGKERELVAAISSGTSTYADSVKGRFTISRDNAKNTVYLQMNSLKPEDTAVYYCAAGYDRVHSVAGYDYWGQGTQVTVSS,polyreactivity (PSR sort gate),low polyreactivity
QVQLVESGGGLVQAGGSLRLSCAASGSILNPNAMGWSRQAPGKERELVASISKSGGSTYYADSVKGRFTISRDNAKNTVYLQMNSLKPEDTAVYYCAAAFVSVRERYGYWGQGTQVTVSS,polyreactivity (PSR sort gate),high polyreactivity
QVQLVESGGGLVQAGGSLRLSCAASGITFVHYAMGWYRQAPGKERELVAAISSGGGSTYYADSVKGRFTISRDNAKNTVYLQMNSLKPGVTAVYYCAAYVLPYGEYDYWGQGTQVTVSS,polyreactivity (PSR sort gate),low polyreactivity
QVQLVESGGGLVQAGGSLRFSCAASGSIFQPYAMGWSRQAPGKERAFVAAISRSGGITYYADSVKGRFTISRDNAKNTVYLQMNSLKPEDTAVYYCAADYILWKGSNSYYYAGYYYWGQGTQVTVSS,polyreactivity (PSR sort gate),low polyreactivity
QVQLVESGGGLVQAGGSLRLSCAASGLTFRKNAMGWYRQAPGKERELVAAISTGGRTYYADSVKGRFTISRDNAKNTVYLQMNSLKPEDTAVYYFNSVSVKSGLDYWGQGTQVTVSS,polyreactivity (PSR sort gate),high polyreactivity
QVQLVESGGGLVQAGGSLRLSCAASGFIFTTYAMGWSRQAPGKEWELVAAISTSGGRTYYADSVKGRFTISRDNAKNTVYLQMNSLKPEDTAVYYCNTYSYYSYDWGQGTQVTVSS,polyreactivity (PSR sort gate),high polyreactivity
QVQLVESGGGLVQAGGSLRLSCAASVRIFGSNVMGWYRQAPGKERELVASISSGGTTYYADSVKGRFTISRDNAKNTVYLHMNSLKPEDTAVYYCAKQWTRIYQYRWYPGTRTGYDYWGQGTQVTVSS,polyreactivity (PSR sort gate),high polyreactivity
QVQLVESGGGLVQAGGSLPLSCAAYGFTFWYYAMGWYRQAPGKERELVAAISTGGRTNYADSVKGRFTISRDNAKNTVYLQMNSLKPEDTAFYYCAADQSYFYLYRYRFDYWGQGTQVTVSS,polyreactivity (PSR sort gate),high polyreactivity
QDQLVESGGGLVQAGGSLRLSCAPSGRTFYSYAMGWYRQAPGKERELVATIDSGGRTNYADSVKGRFTISRDNAKNTVYLQMNSLKPEDTAVYYCAASVWNWYFGIRYDYWGQGTQVTVSS,polyreactivity (PSR sort gate),high polyreactivity
QVQLVESGGGLVQAGGSLRLSCAASGSTFDGYTMGWYRQAPGKERELVAGISWSGTSTYYADSVKGRFTISRDNAKNTVYLQMNSLKPEDTAVYYCAADRYWFRLYTAGVTHRFGYWGQGTQVTVSS,polyreactivity (PSR sort gate),low polyreactivity
QVHLVESGGGLVQAGGSLRLSCAASGITFLKYAMGWYRQAPGKERELVARITSGGRTYYADSVKGRFTISRDNAKNTVYLLMNSLKPEDTAVYYCNAVKSYASLYAGFYYWGQGTHVTVSS,polyreactivity (PSR sort gate),high polyreactivity
QVQLQESAGGLVQAGGSLRLRCSASGYISCDASKGWYRQAPGKERELAASITKGSSTNYADSVKGRFTIRDNAKNSVNLQMNSLKPEDTAVCYCAVTYPYWGDYTYWGQGTQVTVSS,polyreactivity (PSR sort gate),low polyreactivity
QVQLVESGGGLVQAGGSLRLSCAASGRIFYYNAMGWYREAPGKERELVAVITRSGGRTFYADSVKGRFTISRDNAKNTVYLQMNSLKPEDTAVYYCAARYRYYPVTTRGYYWGQGTQVTVSS,polyreactivity (PSR sort gate),high polyreactivity
QVQLVESGGGLVQAGGSLRLSCAASGSTLYNYAMGWYRQAPGKERELVAAITKSGGRTYYADSVKGRFTISRDNAKNTVYLQMNSLKAEDTAVYYCAADRTQYARFDSWGQGTQVTVSS,polyreactivity (PSR sort gate),high polyreactivity
QVQLVDSGGGLDQAGGSLRLSCAASGFTFGDNAMGCYRQAPGKERELVARITGDGSTYYADSVKGRFTISRDNAKNTVYLQMNSLKPEDTAFFYCAADYSPRYTQIEYGYWGQGTQVTVSS,polyreactivity (PSR sort gate),low polyreactivity
QVQLVESGGGLVQAGGSLRLICAASGFTFGYYAMGWYRQAPGKEREFVARISWSGDSTYYADSVKGRFTISRDNAKNTVYLQMTSLKPEDTAVYYCAARFTRQMYYWGQGTQVTVSS,polyreactivity (PSR sort gate),high polyreactivity
QVQLVESGGGLVQAGGSLRLSCAASGRIFRGYAMGWYRQAPGKERELVAAISGRGGRTNYADSVKGRFTISRDNAKNTVYLQMNSLKPEDTAVYYCATVPYTASRYEYWGQGTQVTVSS,polyreactivity (PSR sort gate),high polyreactivity
QVQLVESGGGLVQAGGSLRLSCAASGRIFWDNAMGWYRQAPGKERELVAAISDSVVITYYADSVKGRFTISRDNAKNTVYLQMNSLKPEDTAVYYCAADKRGTVYLSSFWMDYWGQGTQVTVSW,polyreactivity (PSR sort gate),low polyreactivity
QVKLVESGGGLVQAGGSLRLSCAASGFTFNANAMRWYRQAPGKERELVAAISLSGGRTYYADSVKGRFTISRDNAKNTVYLQMISLKPEDTAVYYCAASPDGSFRRFSRVVSGDYWGKGTQVTVSS,polyreactivity (PSR sort gate),high polyreactivity
QVQLVESGGGLVQAGGSLRLSCAASGYTFSDNAIGWYRQAPGKERELVAAITSGVSTYYADSVKGRFTISRDNAKNTVYLQMNSLKPEDTAVYYCAKDVAVYADLYQGAPYGYWGQGTQVTVSS,polyreactivity (PSR sort gate),low polyreactivity
QVQLVESGGGLVQAGGSLRLSCAASGITVGDYAMGWYRQAPGKEREVVAAISYTGGSTYYADSVKGRFTISRDNAQNTGYLQMNSLKPEDTAVYYCAADGYRDYDSWGQGTQVTVSS,polyreactivity (PSR sort gate),high polyreactivity
QVQLVESGGGLVQAGGSLRLSCAASGRTFRGYAMGWYRQAPGKERELVAGIRRGGSTNYADSVKGRFTISRDNSKNTVSLQMNSLKPEDTAVYYCAKTYTVSQPSLRTYYYWGQGTQVTVSS,polyreactivity (PSR sort gate),high polyreactivity
QVQLVESGGGLVQAGGSLRLSCAASGRILSTYAMGWYRQAPGKERELVAVISWTGGRTYYADSVKGRFTISRYNAKNTVYLQMNSLKPEDTAVYYCNARPYYGGTRGRQYEYGYWGQGSQVTVSS,polyreactivity (PSR sort gate),high polyreactivity
QVQLVESAGGLVQAGASLRLSCDASGSTFVYYDMGWYRQAPGKERELVASISWSGGSTSYSDSVKGRFTISRDNAKNTVYLQMNSLKPEDTAVYYCNKSNPDYDGLAIHAFDYWGQGTQVTVSS,polyreactivity (PSR sort gate),low polyreactivity
QVQLVESGGGLVQAGGSLRLSCAASGGTFYAYAMGSYRQAPGKERELVAAITNSGGSTYYADSVKGRFTISRDNAKNNVYLQMHSLKPEDTAVYYCARRRSYRDNYWGQGTQVTVSS,polyreactivity (PSR sort gate),high polyreactivity
QVQIVESGGGLVQAGGSLRLSCAASGRIFFQYALGWYRQAPGKERELVAAIRYSGGSTYYADSVKGRFTISRDNAKNTVYLQMNSLKPEDTAVYYCAARYTRRHYDYWGQGTQVTVSS,polyreactivity (PSR sort gate),high polyreactivity
QVQLVESGGGLFHAGGSLRLSCAASGSTFTDDDMGWYRQAPGKERELVAAMSWSGGSTYYADSVKGRFTISRDNAKNTVYLQMNSLKPDDTADYYCAFRYHGYDYWGQGTQVTVSS,polyreactivity (PSR sort gate),high polyreactivity
EVQLVESGGGLVQAGGSLRISCAASGRIFNFYAMGWYRQAPGKEREFVASIRSNVGSTYYADSVKGRFTISRDNAKNTVYLQMNSLKPEDTAVYYCNARYYWYRGYDYWGQGTQVTVSS,polyreactivity (PSR sort gate),high polyreactivity
QVQLEESGGCLVQAGGSLRLSCAASGITFYGNVMGWYRQAPGKERELVAAISWSGGRTYYADSVKGRFTISRDNAKNTVSVQMNSLKPEDTAVDFCAAEGTTNRGVYASYDYWGQGTQVTVSS,polyreactivity (PSR sort gate),low polyreactivity
